{"source": "IntAct's records for PubMed 25232744", "parents": {"B1": {"name": "T-box brain protein 1 (Homo sapiens), Q16650 (parent)", "chain": "MQLEHCLSPSIMLSKKFLNVSSSYPHSGGSELVLHDHPIISTTDNLERSSPLKKITRGMTNQSDTDNFPDSKDSPGDVQRSKLSPVLDGVSELRHSFDGSAADRYLLSQSSQPQSAATAPSAMFPYPGQHGPAHPAFSIGSPSRYMAHHPVITNGAYNSLLSNSSPQGYPTAGYPYPQQYGHSYQGAPFYQFSSTQPGLVPGKAQVYLCNRPLWLKFHRHQTEMIITKQGRRMFPFLSFNISGLDPTAHYNIFVDVILADPNHWRFQGGKWVPCGKADTNVQGNRVYMHPDSPNTGAHWMRQEISFGKLKLTNNKGASNNNGQMVVLQSLHKYQPRLHVVEVNEDGTEDTSQPGRVQTFTFPETQFIAVTAYQNTDITQLKIDHNPFAKGFRDNYDTIYTGCDMDRLTPSPNDSPRSQIVPGARYAMAGSFLQDQFVSNYAKARFHPGAGAGPGPGTDRSVPHTNGLLSPQQAEDPGAPSPQRWFVTPANNRLDFAASAYDTATDFAGNAATLLSYAAAGVKALPLQAAGCTGRPLGYYADPSGWGARSPPQYCGTKSGSVLPCWPNSAAAAARMAGANPYLGEEAEGLAAERSPLPPGAAEDAKPKDLSDSSWIETPSSIKSIDSSDSGIYEQAKRRRISPADTPVSESSSPLKSEVLAQRDCEKNCAKDISGYYGFYSHS"}, "B2": {"name": "Forkhead box protein P2 (Homo sapiens), O15409-1 (parent)", "chain": "MMQESATETISNSSMNQNGMSTLSSQLDAGSRDGRSSGDTSSEVSTVELLHLQQQQALQAARQLLLQQQTSGLKSPKSSDKQRPLQVPVSVAMMTPQVITPQQMQQILQQQVLSPQQLQALLQQQQAVMLQQQQLQEFYKKQQEQLHLQLLQQQQQQQQQQQQQQQQQQQQQQQQQQQQQQQQQQQQQQQQHPGKQAKEQQQQQQQQQQLAAQQLVFQQQLLQMQQLQQQQHLLSLQRQGLISIPPGQAALPVQSLPQAGLSPAEIQQLWKEVTGVHSMEDNGIKHGGLDLTTNNSSSTTSSNTSKASPPITHHSIVNGQSSVLSARRDSSSHEETGASHTLYGHGVCKWPGCESICEDFGQFLKHLNNEHALDDRSTAQCRVQMQVVQQLEIQLSKERERLQAMMTHLHMRPSEPKPSPKPLNLVSSVTMSKNMLETSPQSLPQTPTTPTAPVTPITQGPSVITPASVPNVGAIRRRHSDKYNIPMSSEIAPNYEFYKNADVRPPFTYATLIRQAIMESSDRQLTLNEIYSWFTRTFAYFRRNAATWKNAVRHNLSLHKCFVRVENVKGAVWTVDEVEYQKRRSQKITGSPTLVKNIPTSLGYGAALNASLQAALAESSLPLLSNPGLINNASSGLLQAVHEDLNGSLDHIDSNGNSSPGCSPQPHIHSIHVKEEPVIAEDEDCPMSLVTTANHSPELEDDREIEEEPLSEDLE", "partner": "B1 chain"}}, "data": [{"variants_of": "B1", "details": "with FOXP2, O15409-1", "values": [{"variant": "Q178E", "effect of a mutation on the interaction": "decreasing interaction strength"}, {"variant": "K228E", "effect of a mutation on the interaction": "disrupting interaction strength"}, {"variant": "V356M", "effect of a mutation on the interaction": "decreasing interaction strength"}, {"variant": "N374H", "effect of a mutation on the interaction": "disrupting interaction strength"}, {"variant": "Q418R", "effect of a mutation on the interaction": "disrupting interaction strength"}, {"variant": "P542R", "effect of a mutation on the interaction": "decreasing interaction strength"}]}, {"variants_of": "B2", "details": "with tbr1_human TBR1, Q16650", "values": [{"variant": "R553H", "effect of a mutation on the interaction": "decreasing interaction strength"}]}]}
